Where no end group is shown, it is not given here.
Experiments:
Assay in all cases: cell-based or functional assay
[1] = molecular target: Human activated protein C (human, UniProt P04070)
[2] = molecular target: Human Factor Xa (human, UniProt P00742)
[3] = molecular target: T1, Human Factor XIIa (human, UniProt P00748)
T1 sequence 1: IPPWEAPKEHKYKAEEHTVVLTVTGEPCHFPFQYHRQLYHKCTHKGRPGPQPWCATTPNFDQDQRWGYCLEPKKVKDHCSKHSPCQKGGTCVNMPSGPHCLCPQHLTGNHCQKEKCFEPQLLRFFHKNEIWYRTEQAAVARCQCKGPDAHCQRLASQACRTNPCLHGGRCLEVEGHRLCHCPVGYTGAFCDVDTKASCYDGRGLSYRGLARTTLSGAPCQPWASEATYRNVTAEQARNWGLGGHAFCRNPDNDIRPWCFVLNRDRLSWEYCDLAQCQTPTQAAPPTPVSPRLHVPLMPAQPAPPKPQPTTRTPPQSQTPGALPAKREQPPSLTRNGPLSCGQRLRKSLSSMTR
T1 sequence 2: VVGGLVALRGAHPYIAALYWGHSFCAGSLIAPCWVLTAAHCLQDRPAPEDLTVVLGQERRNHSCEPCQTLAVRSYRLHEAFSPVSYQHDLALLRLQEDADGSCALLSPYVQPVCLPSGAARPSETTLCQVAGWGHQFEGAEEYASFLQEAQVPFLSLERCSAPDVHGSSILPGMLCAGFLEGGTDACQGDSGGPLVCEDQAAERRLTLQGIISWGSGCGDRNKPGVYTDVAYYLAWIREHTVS

[4] = molecular target: Human plasmin (human, UniProt P00747)
[5] = molecular target: Human thrombin (human, UniProt P00734)

B1: APPI (Alzheimer's amyloid β-protein precursor inhibitor) (other)
chain: VREVCSEQAETGPCRAMISRWYFDVTEGKCAPFFYGGCGGNRNNFDTEEYCMAVCGSA
modifications: not fully specified (bridges); ends and bridges not checked
fraction of remaining proteolytic activity with 100 nM inhibitor [1]: 0.87 fraction of uninhibited rate | fraction of remaining proteolytic activity with 100 nM inhibitor [2]: 0.89 fraction of uninhibited rate | fraction of remaining proteolytic activity with 100 nM inhibitor [3]: 0.97 fraction of uninhibited rate | fraction of remaining proteolytic activity with 100 nM inhibitor [4]: 0.62 fraction of uninhibited rate | fraction of remaining proteolytic activity with 100 nM inhibitor [5]: 0.92 fraction of uninhibited rate

— patent US5786328, “Use of kunitz type plasma kallikrein inhibitors” (Genentech, Inc., dated 1998)
